Results reported in article PMC11032491, “A conserved strategy to attack collagen: The activator domain in bacterial collagenases unwinds triple-helical collagen” (Proceedings of the National Academy of Sciences of the …, 2024).

What was measured:
[1] = molecular target: type I gelatin (heat-denatured acid-soluble type I atelocollagen from bovine hides) (bovine) (UniProt P02453); assay: ELISA; indirect ELISA; gelatin coated on the plate (5 µg/ml); His-tagged collagenase variant in PBST with 1% BSA, serially diluted 1:3, 140 min at 37 °C; detected with anti-His-HRP; Hill fit; apparent Kd
type I gelatin (heat-denatured acid-soluble type I atelocollagen from bovine hides) (bovine), sequence (P02453 23-1217, chain 1 of 2): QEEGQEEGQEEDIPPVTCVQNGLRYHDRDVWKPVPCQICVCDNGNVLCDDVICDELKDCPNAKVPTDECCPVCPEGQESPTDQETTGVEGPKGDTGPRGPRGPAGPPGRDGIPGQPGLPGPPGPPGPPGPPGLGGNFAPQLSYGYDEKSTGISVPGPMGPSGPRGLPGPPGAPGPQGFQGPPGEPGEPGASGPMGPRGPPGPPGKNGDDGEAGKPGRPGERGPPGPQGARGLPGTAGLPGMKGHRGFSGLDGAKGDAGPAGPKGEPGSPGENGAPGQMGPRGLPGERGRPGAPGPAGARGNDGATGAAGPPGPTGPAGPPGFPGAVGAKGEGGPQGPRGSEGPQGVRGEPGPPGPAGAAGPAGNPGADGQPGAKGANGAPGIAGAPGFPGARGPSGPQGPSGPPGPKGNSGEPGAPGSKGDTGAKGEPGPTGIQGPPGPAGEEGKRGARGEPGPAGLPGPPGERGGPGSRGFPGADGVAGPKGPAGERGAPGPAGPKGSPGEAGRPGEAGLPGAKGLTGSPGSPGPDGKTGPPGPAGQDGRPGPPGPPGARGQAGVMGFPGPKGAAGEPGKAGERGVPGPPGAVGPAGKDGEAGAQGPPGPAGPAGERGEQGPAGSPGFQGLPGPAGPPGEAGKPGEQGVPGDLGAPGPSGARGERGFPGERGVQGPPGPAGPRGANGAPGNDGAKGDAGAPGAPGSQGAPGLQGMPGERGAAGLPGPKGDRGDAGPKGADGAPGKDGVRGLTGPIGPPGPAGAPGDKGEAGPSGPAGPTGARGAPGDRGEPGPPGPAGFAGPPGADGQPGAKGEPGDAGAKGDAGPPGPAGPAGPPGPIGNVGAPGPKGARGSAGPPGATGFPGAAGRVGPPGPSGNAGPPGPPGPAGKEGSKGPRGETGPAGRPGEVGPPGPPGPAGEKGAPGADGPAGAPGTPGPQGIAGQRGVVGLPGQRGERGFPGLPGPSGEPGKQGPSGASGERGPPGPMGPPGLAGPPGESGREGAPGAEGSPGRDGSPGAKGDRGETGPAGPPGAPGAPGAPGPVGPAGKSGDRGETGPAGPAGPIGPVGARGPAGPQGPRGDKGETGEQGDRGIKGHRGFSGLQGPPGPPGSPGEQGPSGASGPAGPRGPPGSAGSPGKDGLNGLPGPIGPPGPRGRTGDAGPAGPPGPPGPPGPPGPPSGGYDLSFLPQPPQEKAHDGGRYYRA
type I gelatin (heat-denatured acid-soluble type I atelocollagen from bovine hides) (bovine), sequence (P02465 80-1117, chain 2 of 2, further chain): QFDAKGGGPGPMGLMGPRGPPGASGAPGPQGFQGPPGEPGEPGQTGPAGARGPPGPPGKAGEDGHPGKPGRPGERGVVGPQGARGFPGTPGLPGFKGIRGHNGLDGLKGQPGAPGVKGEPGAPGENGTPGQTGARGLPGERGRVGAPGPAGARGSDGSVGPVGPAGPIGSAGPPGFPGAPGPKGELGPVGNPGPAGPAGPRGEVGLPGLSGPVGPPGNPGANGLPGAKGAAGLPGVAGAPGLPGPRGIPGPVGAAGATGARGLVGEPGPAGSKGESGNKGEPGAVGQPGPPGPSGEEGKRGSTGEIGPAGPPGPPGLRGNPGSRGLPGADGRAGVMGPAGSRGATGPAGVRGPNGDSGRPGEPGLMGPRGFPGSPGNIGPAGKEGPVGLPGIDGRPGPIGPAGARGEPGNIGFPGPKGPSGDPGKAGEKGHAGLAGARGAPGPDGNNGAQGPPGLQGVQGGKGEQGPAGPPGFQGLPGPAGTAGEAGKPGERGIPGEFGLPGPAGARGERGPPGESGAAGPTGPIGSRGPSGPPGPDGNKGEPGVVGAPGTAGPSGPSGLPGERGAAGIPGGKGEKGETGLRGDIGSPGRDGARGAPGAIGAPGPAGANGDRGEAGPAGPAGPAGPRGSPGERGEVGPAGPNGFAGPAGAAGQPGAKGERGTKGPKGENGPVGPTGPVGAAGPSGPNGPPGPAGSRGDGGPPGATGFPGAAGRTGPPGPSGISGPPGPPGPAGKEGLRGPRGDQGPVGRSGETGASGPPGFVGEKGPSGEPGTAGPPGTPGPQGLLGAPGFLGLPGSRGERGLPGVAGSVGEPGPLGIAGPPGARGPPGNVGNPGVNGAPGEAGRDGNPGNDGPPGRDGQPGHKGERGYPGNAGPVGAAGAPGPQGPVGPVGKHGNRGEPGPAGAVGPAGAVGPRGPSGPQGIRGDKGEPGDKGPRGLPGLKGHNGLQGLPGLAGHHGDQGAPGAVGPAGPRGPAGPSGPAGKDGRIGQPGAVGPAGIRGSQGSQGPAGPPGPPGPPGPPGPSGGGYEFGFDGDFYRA

[2] = molecular target: soluble type I collagen (acid-soluble type I atelocollagen from bovine hides) (bovine) (UniProt P02453); assay: ELISA; indirect ELISA; soluble type I collagen coated on the plate (5 µg/ml); His-tagged collagenase variant in PBST with 1% BSA, serially diluted 1:3, 140 min at room temperature (25 °C); detected with anti-His-HRP; Hill fit; apparent Kd
soluble type I collagen (acid-soluble type I atelocollagen from bovine hides) (bovine), sequence (P02453 162-1217, chain 1 of 2): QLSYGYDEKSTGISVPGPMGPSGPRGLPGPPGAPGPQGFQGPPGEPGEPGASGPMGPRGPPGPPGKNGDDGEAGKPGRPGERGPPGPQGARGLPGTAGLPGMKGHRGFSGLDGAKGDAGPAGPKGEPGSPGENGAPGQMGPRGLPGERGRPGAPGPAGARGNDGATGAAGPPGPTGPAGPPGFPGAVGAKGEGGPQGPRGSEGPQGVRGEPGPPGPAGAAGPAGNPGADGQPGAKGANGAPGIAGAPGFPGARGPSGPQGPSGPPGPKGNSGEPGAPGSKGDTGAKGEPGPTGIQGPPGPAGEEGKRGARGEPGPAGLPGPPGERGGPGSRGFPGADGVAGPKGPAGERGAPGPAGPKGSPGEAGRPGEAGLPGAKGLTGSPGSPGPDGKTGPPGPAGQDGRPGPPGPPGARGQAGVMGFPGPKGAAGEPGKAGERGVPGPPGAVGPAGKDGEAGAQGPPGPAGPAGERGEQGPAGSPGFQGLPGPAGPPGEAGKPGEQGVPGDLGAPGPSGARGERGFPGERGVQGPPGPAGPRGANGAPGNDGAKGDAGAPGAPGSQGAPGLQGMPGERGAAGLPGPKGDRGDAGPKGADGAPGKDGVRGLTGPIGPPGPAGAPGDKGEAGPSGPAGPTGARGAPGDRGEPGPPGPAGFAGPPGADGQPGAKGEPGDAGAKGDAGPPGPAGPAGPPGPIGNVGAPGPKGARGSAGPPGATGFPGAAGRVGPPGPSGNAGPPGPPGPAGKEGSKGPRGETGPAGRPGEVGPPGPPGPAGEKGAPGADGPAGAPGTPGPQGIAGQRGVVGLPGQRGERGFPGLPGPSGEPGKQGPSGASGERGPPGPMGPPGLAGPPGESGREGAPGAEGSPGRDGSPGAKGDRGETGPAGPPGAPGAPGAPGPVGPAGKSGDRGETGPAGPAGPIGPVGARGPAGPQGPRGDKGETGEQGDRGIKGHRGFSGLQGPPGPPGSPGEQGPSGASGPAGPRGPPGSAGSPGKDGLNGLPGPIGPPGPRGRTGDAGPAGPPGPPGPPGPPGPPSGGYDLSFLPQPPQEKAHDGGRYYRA
soluble type I collagen (acid-soluble type I atelocollagen from bovine hides) (bovine), sequence (P02465 80-1117, chain 2 of 2, further chain): as the sequence (P02465 80-1117, chain 2 of 2, further chain) above

Row | Substance | Kd [1] [nM] | Kd [2] [nM]
1 | ColQ1-CU G472V Y251A (control mutant) (from UniProt B9J3S4 94-965) (domain or fragment) | 2500 | 2800
2 | ColQ1-CU G472V R169A (from UniProt B9J3S4 94-965) (domain or fragment) | 2800 | 170
3 | ColQ1-CU G472V Y321A (control mutant) (from UniProt B9J3S4 94-965) (domain or fragment) | 2500 | 4000
4 | ColQ1-CU G472V N317A (control mutant) (from UniProt B9J3S4 94-965) (domain or fragment) | 2300 | 2800
5 | ColQ1-CU G472V F176A (from UniProt B9J3S4 94-965) (domain or fragment) | 1200 | 80
6 | ColQ1-CU G472V Y270A (from UniProt B9J3S4 94-965) (domain or fragment) | 4200 | 190
7 | ColQ1-CU G472V F123A (from UniProt B9J3S4 94-965) (domain or fragment) | 1600 | 
8 | ColQ1-CU G472V E166A (from UniProt B9J3S4 94-965) (domain or fragment) | 5000 | 
9 | ColQ1-CU G472V Y173A (from UniProt B9J3S4 94-965) (domain or fragment) | 24000 | 
